Assay results published in publication PMC4850266.

Molecular target: A. fumigatus FKBP12(V91C) (Aspergillus fumigatus)
Assay: cross-linking; disulfide trapping through the single cysteine V91C; protein purified from C41(DE3) and SHuffle cells without reducing agent; nonreducing SDS-PAGE

## A. fumigatus FKBP12(V91C) (enzyme)
  stoichiometry N: 2
